{"source": "patent US20120329707A1", "about": "(INDIANA UNIVERSITY RESEARCH AND TECHNOLOGY, published 2012)", "binders": {"B1": {"name": "peptide of SEQ ID NO: 59 (peptide)", "peptide": "H[Aib]QGTFTSDK(Palmitoyl)SKYLDERRA[Aib]DFVQWLMNT-NH2", "modifications": "N-terminus assumed", "SMILES": "CCCCCCCCCCCCCCCC(=O)NCCCC[C@H](NC(=O)[C@H](CC(=O)O)NC(=O)[C@H](CO)NC(=O)[C@@H](NC(=O)[C@H](Cc1ccccc1)NC(=O)[C@@H](NC(=O)CNC(=O)[C@H](CCC(N)=O)NC(=O)C(C)(C)NC(=O)[C@@H](N)Cc1c[nH]cn1)[C@@H](C)O)[C@@H](C)O)C(=O)N[C@@H](CO)C(=O)N[C@@H](CCCCN)C(=O)N[C@@H](Cc1ccc(O)cc1)C(=O)N[C@@H](CC(C)C)C(=O)N[C@@H](CC(=O)O)C(=O)N[C@@H](CCC(=O)O)C(=O)N[C@@H](CCCNC(=N)N)C(=O)N[C@@H](CCCNC(=N)N)C(=O)N[C@@H](C)C(=O)NC(C)(C)C(=O)N[C@@H](CC(=O)O)C(=O)N[C@@H](Cc1ccccc1)C(=O)N[C@H](C(=O)N[C@@H](CCC(N)=O)C(=O)N[C@@H](Cc1c[nH]c2ccccc12)C(=O)N[C@@H](CC(C)C)C(=O)N[C@@H](CCSC)C(=O)N[C@@H](CC(N)=O)C(=O)N[C@H](C(N)=O)[C@@H](C)O)C(C)C"}, "B2": {"name": "peptide of SEQ ID NO: 49 (peptide)", "peptide": "H[dS]QGTFTSDK(benzoylpropionyl)SKYLDERAAQDFVQWLLDGGPSSGAPPPS-NH2", "modifications": "N-terminus assumed", "SMILES": "CC(C)C[C@H](NC(=O)[C@H](CC(C)C)NC(=O)[C@H](Cc1c[nH]c2ccccc12)NC(=O)[C@H](CCC(N)=O)NC(=O)[C@@H](NC(=O)[C@H](Cc1ccccc1)NC(=O)[C@H](CC(=O)O)NC(=O)[C@H](CCC(N)=O)NC(=O)[C@H](C)NC(=O)[C@H](C)NC(=O)[C@H](CCCNC(=N)N)NC(=O)[C@H](CCC(=O)O)NC(=O)[C@H](CC(=O)O)NC(=O)[C@H](CC(C)C)NC(=O)[C@H](Cc1ccc(O)cc1)NC(=O)[C@H](CCCCN)NC(=O)[C@H](CO)NC(=O)[C@H](CCCCNC(=O)CCC(=O)c1ccccc1)NC(=O)[C@H](CC(=O)O)NC(=O)[C@H](CO)NC(=O)[C@@H](NC(=O)[C@H](Cc1ccccc1)NC(=O)[C@@H](NC(=O)CNC(=O)[C@H](CCC(N)=O)NC(=O)[C@@H](CO)NC(=O)[C@@H](N)Cc1c[nH]cn1)[C@@H](C)O)[C@@H](C)O)C(C)C)C(=O)N[C@@H](CC(=O)O)C(=O)NCC(=O)NCC(=O)N1CCC[C@H]1C(=O)N[C@@H](CO)C(=O)N[C@@H](CO)C(=O)NCC(=O)N[C@@H](C)C(=O)N1CCC[C@H]1C(=O)N1CCC[C@H]1C(=O)N1CCC[C@H]1C(=O)N[C@@H](CO)C(N)=O"}, "B3": {"name": "peptide of SEQ ID NO: 48 (peptide)", "peptide": "H[dS]QGTFTSDK([γGlu-Acetyl(1-adamantyl)])SKYLDERAAQDFVQWLLDT-NH2", "modifications": "N-terminus assumed", "SMILES": "CC(C)C[C@H](NC(=O)[C@H](Cc1ccc(O)cc1)NC(=O)[C@H](CCCCN)NC(=O)[C@H](CO)NC(=O)[C@H](CCCCNC(=O)CC[C@H](NC(=O)CC12CC3CC(CC(C3)C1)C2)C(=O)O)NC(=O)[C@H](CC(=O)O)NC(=O)[C@H](CO)NC(=O)[C@@H](NC(=O)[C@H](Cc1ccccc1)NC(=O)[C@@H](NC(=O)CNC(=O)[C@H](CCC(N)=O)NC(=O)[C@@H](CO)NC(=O)[C@@H](N)Cc1c[nH]cn1)[C@@H](C)O)[C@@H](C)O)C(=O)N[C@@H](CC(=O)O)C(=O)N[C@@H](CCC(=O)O)C(=O)N[C@@H](CCCNC(=N)N)C(=O)N[C@@H](C)C(=O)N[C@@H](C)C(=O)N[C@@H](CCC(N)=O)C(=O)N[C@@H](CC(=O)O)C(=O)N[C@@H](Cc1ccccc1)C(=O)N[C@H](C(=O)N[C@@H](CCC(N)=O)C(=O)N[C@@H](Cc1c[nH]c2ccccc12)C(=O)N[C@@H](CC(C)C)C(=O)N[C@@H](CC(C)C)C(=O)N[C@@H](CC(=O)O)C(=O)N[C@H](C(N)=O)[C@@H](C)O)C(C)C"}}, "note": "Numbered stars: 1 amine (or outer) side, 2 acyl side, 3 side chain; on linkers, the order of the positions; unused ones are H or OH. Square brackets hold non-standard residues; d marks the D form. Primed or numbered codes have the meaning given here. Side chains are listed from the residue outwards. Ends that are not written are not given here. * marks the point of attachment. 40K‑TE PEG = 40 kDa PEG covalently bound via thioether, formed by reaction of the free thiol of the peptide (Cys side chain) with an iodoacetic-functionalized PEG; 40K‑TE PEG(3) = 40 kDa PEG bound to the Cys thiol via a thioether, made by reacting the free-thiol peptide with iodoacetic-functionalised PEG; 40K‑TE PEG″ = 40 kDa PEG bound to Cys via thioether made from an iodoacetyl-functionalised PEG; 20K‑TE PEG = 20 kDa PEG bound via thioether from iodoacetic-functioned PEG; benzoylpropionyl = benzoylpropionyl acyl group, O=C(CCC(=O)*)c1ccccc1; 12K‑ME PEG = 12 kDa PEG bound via maleimido-thioether; Acetyl(1-adamantyl) = O=C(CC12CC3CC(CC(C3)C1)C2)*; γGlu = O=C(O)[C@H](CCC(=O)[*:2])N[*:1]; Palmitoyl = CCCCCCCCCCCCCCCC(=O)*; Aib = CC(C)(N)C(=O)O", "data": [{"biological_target": "glucagon receptor", "assay": "cell-based or functional assay", "units": {"EC50 (nM) at glucagon receptor": "nM"}, "values": [{"binder": "H[Aib]QGTFTSDYSKYLDEKRA[Aib]EFVC(40K‑TE PEG)WLLDGGPSSGAPPPS-NH2", "note": "[peptide of SEQ ID NO: 47]", "EC50 (nM) at glucagon receptor": 0.591}, {"binder": "H[dS]QGTFTSDK([γGlu-Palmitoyl])SKYLDEQAAKEFIC(20K‑TE PEG)WLLDT-NH2", "note": "[peptide of SEQ ID NO: 44]", "EC50 (nM) at glucagon receptor": 0.023}, {"binder": "H[Aib]QGTFTSDYSKYLD[Aib]KRA[Aib]EFVC(40K‑TE PEG(3))WLLDGGPSSGAPPPS-NH2", "note": "[peptide of SEQ ID NO: 46]", "EC50 (nM) at glucagon receptor": 0.227}, {"binder": "B1", "EC50 (nM) at glucagon receptor": 0.051}, {"binder": "B2", "EC50 (nM) at glucagon receptor": 0.063}, {"binder": "H[Aib]QGTFTSDYSKYLDEKRA[Aib]EFVC(40K‑TE PEG)WLLDT-OH", "note": "[peptide of SEQ ID NO: 45]", "EC50 (nM) at glucagon receptor": 0.651}, {"binder": "H[Aib]QGTFTSDYSKYLDEK[Aib]AKEFVC(40K‑TE PEG(3))WLLDT-NH2", "note": "[peptide of SEQ ID NO: 52]", "EC50 (nM) at glucagon receptor": 4.5}, {"binder": "B3", "EC50 (nM) at glucagon receptor": 0.026}, {"binder": "H[dS]QGTFTSDK([γGlu-Palmitoyl])SKYLDEQAAKEFIC(12K‑ME PEG)WLLDT-NH2", "note": "[peptide of SEQ ID NO: 43]", "EC50 (nM) at glucagon receptor": 0.02}, {"binder": "H[Aib]QGTFTSDYSKYLDEKRA[Aib]EFVC(40K‑TE PEG″)WLLDE-NH2", "note": "[peptide of SEQ ID NO: 16]", "EC50 (nM) at glucagon receptor": 0.563}, {"binder": "H[Aib]QGTFTSDYSKYLD[Aib]KRAKEFVQWLLDTC(40K‑TE PEG″)-NH2", "note": "[peptide of SEQ ID NO: 40]", "EC50 (nM) at glucagon receptor": 1.19}]}, {"biological_target": "GLP-1 receptor", "assay": "cell-based or functional assay", "units": {"EC50 (nM) at GLP-1 receptor": "nM"}, "values": [{"binder": "H[Aib]QGTFTSDYSKYLDEKRA[Aib]EFVC(40K‑TE PEG)WLLDGGPSSGAPPPS-NH2", "note": "[peptide of SEQ ID NO: 47]", "EC50 (nM) at GLP-1 receptor": 0.052}, {"binder": "H[dS]QGTFTSDK([γGlu-Palmitoyl])SKYLDEQAAKEFIC(20K‑TE PEG)WLLDT-NH2", "note": "[peptide of SEQ ID NO: 44]", "EC50 (nM) at GLP-1 receptor": 0.017}, {"binder": "H[Aib]QGTFTSDYSKYLD[Aib]KRA[Aib]EFVC(40K‑TE PEG(3))WLLDGGPSSGAPPPS-NH2", "note": "[peptide of SEQ ID NO: 46]", "EC50 (nM) at GLP-1 receptor": 0.136}, {"binder": "B1", "EC50 (nM) at GLP-1 receptor": 0.01}, {"binder": "B2", "EC50 (nM) at GLP-1 receptor": 0.01}, {"binder": "H[Aib]QGTFTSDYSKYLDEKRA[Aib]EFVC(40K‑TE PEG)WLLDT-OH", "note": "[peptide of SEQ ID NO: 45]", "EC50 (nM) at GLP-1 receptor": 1.44}, {"binder": "H[Aib]QGTFTSDYSKYLDEK[Aib]AKEFVC(40K‑TE PEG(3))WLLDT-NH2", "note": "[peptide of SEQ ID NO: 52]", "EC50 (nM) at GLP-1 receptor": 0.054}, {"binder": "B3", "EC50 (nM) at GLP-1 receptor": 0.039}, {"binder": "H[dS]QGTFTSDK([γGlu-Palmitoyl])SKYLDEQAAKEFIC(12K‑ME PEG)WLLDT-NH2", "note": "[peptide of SEQ ID NO: 43]", "EC50 (nM) at GLP-1 receptor": 0.011}, {"binder": "H[Aib]QGTFTSDYSKYLDEKRA[Aib]EFVC(40K‑TE PEG″)WLLDE-NH2", "note": "[peptide of SEQ ID NO: 16]", "EC50 (nM) at GLP-1 receptor": 0.487}, {"binder": "H[Aib]QGTFTSDYSKYLD[Aib]KRAKEFVQWLLDTC(40K‑TE PEG″)-NH2", "note": "[peptide of SEQ ID NO: 40]", "EC50 (nM) at GLP-1 receptor": 0.653}]}, {"biological_target": "T1, GIP receptor", "T1 sequence (P48546 whole entry, species assumed, looked up)": "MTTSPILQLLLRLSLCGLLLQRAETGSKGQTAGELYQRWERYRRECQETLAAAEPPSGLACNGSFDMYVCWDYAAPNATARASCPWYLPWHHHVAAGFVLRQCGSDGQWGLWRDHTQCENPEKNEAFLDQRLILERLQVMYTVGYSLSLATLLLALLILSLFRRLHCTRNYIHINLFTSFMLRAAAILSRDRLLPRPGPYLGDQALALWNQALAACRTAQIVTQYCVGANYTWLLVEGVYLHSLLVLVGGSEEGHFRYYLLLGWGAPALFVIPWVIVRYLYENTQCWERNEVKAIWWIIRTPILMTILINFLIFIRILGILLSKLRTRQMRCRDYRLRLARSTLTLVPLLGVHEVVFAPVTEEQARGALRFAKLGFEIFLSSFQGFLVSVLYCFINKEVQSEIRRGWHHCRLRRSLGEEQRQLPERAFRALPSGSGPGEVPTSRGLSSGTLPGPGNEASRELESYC", "assay": "cell-based or functional assay", "units": {"EC50 (nM) at GIP receptor": "nM"}, "values": [{"binder": "B1", "EC50 (nM) at GIP receptor": 7.48}, {"binder": "H[Aib]QGTFTSDYSKYLDEKRA[Aib]EFVC(40K‑TE PEG″)WLLDE-NH2", "note": "[peptide of SEQ ID NO: 16]", "EC50 (nM) at GIP receptor": 465}]}]}
